For orientation: Kd means the free concentration of one partner at which half of the binding sites on the other are occupied at equilibrium, for simple one-to-one binding. A word on the IC50: it is the point on the concentration scale where inhibition reaches its midpoint. A higher IC50 goes with weaker potency.

Several values for one entry are separate records, joined by “and”; a condition that tells them apart may be missing. Equal entries are not always repeated. Starred links: 1 amine or outer side, 2 acyl side, 3 side chain; linkers in the order of their positions; H or OH if unused. Non-standard residues stand in square brackets, D forms with d. No end group written: not given here. *: point of attachment. Phe(4-NO2) = N[C@@H](Cc1ccc([N+](=O)[O-])cc1)C(=O)O; Benzenesulfonyl(4-OMe) = COc1ccc(S(=O)(=O)*)cc1; E(Me) = COC(=O)CC[C@H](N[*:1])C(=O)[*:2]; Phe(3-Cl) = N[C@@H](Cc1cccc(Cl)c1)C(=O)O; Phe(4-Br) = N[C@@H](Cc1ccc(Br)cc1)C(=O)O; Phe(3-F) = N[C@@H](Cc1cccc(F)c1)C(=O)O; Suc = O=C(CCC(=O)[*:2])[*:1]; Tos = Cc1ccc(S(=O)(=O)*)cc1; βE = a beta form of Glu

Twelve molecules from patent US20190106460A1 (published 2019) can be followed below.

B1: Suc-EGFFE-NH2 (peptide)
peptide: Suc-EGFFE-NH2
SMILES: NC(=O)[C@H](CCC(=O)O)NC(=O)[C@H](Cc1ccccc1)NC(=O)[C@H](Cc1ccccc1)NC(=O)CNC(=O)[C@H](CCC(=O)O)NC(=O)CCC(=O)O
notes: also called UBP002; succ-EGFFE
B2: Ts-dEGF(3Cl)WE-NH2 (peptide)
peptide: Tos-[dD]EG[Phe(3-Cl)]WE-NH2
SMILES: Cc1ccc(S(=O)(=O)N[C@H](CC(=O)O)C(=O)N[C@@H](CCC(=O)O)C(=O)NCC(=O)N[C@@H](Cc2cccc(Cl)c2)C(=O)N[C@@H](Cc2c[nH]c3ccccc23)C(=O)N[C@@H](CCC(=O)O)C(N)=O)cc1
notes: also called UBP034
B3: 4-(MeO)-PhSO2-dEGF(3F)WE-NH2 (peptide)
peptide: {Benzenesulfonyl(4-OMe)}-[dD]EG[Phe(3-F)]WE-NH2
SMILES: COc1ccc(S(=O)(=O)N[C@H](CC(=O)O)C(=O)N[C@@H](CCC(=O)O)C(=O)NCC(=O)N[C@@H](Cc2cccc(F)c2)C(=O)N[C@@H](Cc2c[nH]c3ccccc23)C(=O)N[C@@H](CCC(=O)O)C(N)=O)cc1
notes: also called UBP022
B4: Ts-DEGF(3F)WE-NH2 (peptide)
peptide: Tos-DEG[Phe(3-F)]WE-NH2
SMILES: Cc1ccc(S(=O)(=O)N[C@@H](CC(=O)O)C(=O)N[C@@H](CCC(=O)O)C(=O)NCC(=O)N[C@@H](Cc2cccc(F)c2)C(=O)N[C@@H](Cc2c[nH]c3ccccc23)C(=O)N[C@@H](CCC(=O)O)C(N)=O)cc1
notes: also called UBP024
B5: Suc-EG-F(4NO2)-F(4NO2)-NH2 (peptide)
peptide: Suc-EG[Phe(4-NO2)][Phe(4-NO2)]-NH2
SMILES: NC(=O)[C@H](Cc1ccc([N+](=O)[O-])cc1)NC(=O)[C@H](Cc1ccc([N+](=O)[O-])cc1)NC(=O)CNC(=O)[C@H](CCC(=O)O)NC(=O)CCC(=O)O
B6: Suc-EGFF-NH2 (peptide)
peptide: Suc-EGFF-NH2
SMILES: NC(=O)[C@H](Cc1ccccc1)NC(=O)[C@H](Cc1ccccc1)NC(=O)CNC(=O)[C@H](CCC(=O)O)NC(=O)CCC(=O)O
B7: Suc-EG-F(4Br)-F-NH2 (peptide)
peptide: Suc-EG[Phe(4-Br)]F-NH2
SMILES: NC(=O)[C@H](Cc1ccccc1)NC(=O)[C@H](Cc1ccc(Br)cc1)NC(=O)CNC(=O)[C@H](CCC(=O)O)NC(=O)CCC(=O)O

One assay deals with T1, HisβTrCP/Skp1 and HisβTrCP/GSTSkp1 (immobilised on NTA Biacore chip) (UniProt Q9Y297 175-605; P63208 1-163).
T1 construct: SPR: KD values from both surfaces (with or without the GST moiety) were averaged to give the apparent KD; also called βTrCP surfaces
T1 sequence (Q9Y297 175-605, chain 1 of 2): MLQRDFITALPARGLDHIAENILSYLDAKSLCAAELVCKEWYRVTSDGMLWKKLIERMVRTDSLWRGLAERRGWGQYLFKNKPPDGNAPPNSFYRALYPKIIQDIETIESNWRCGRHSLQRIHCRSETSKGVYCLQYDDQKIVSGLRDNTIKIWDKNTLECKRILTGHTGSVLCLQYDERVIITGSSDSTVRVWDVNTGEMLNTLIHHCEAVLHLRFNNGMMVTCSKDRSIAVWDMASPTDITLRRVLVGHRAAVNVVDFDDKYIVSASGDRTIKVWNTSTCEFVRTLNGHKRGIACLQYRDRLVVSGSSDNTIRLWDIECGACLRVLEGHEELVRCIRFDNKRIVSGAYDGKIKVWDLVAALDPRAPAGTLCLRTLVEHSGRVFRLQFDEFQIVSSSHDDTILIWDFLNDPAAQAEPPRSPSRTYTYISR
T1 sequence (P63208 whole entry, chain 2 of 2): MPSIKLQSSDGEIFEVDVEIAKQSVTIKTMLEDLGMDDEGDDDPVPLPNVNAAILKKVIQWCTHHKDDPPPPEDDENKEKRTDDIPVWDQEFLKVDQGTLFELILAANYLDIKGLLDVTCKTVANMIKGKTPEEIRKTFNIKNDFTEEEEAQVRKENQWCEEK
The assay can be described thus: SPR (Biacore T200), single cycle run up to 1e-6 M, steady-state fit of the run shown; Rmax 2.156 RU, Chi² 0.00730 RU² [E]. The source says: (§1) As βTrCP was His tagged, an NTA sensor chip was used. This sensor chip has a dextran surface matrix with immobilized nitrilotriacetic acid (NTA) which provides a means of capturing polyHis-tagged proteins through Nickel chelation. It was hoped that addition of Ni⁺ would orient the protein in a specific (and hopefully active) manner as it is covalently immobilised via amine coupling. Addition of EDC:NHS (N-ethyl-N′-(3-[…])-carbodiimide:N-hydroxysuccinimide) converts carboxyl groups on the dextran sensor chip surface to succinamide esters which readily form covalent bonds with primary amines. Each chip contains four flow cells (each a separate surface) which means that compounds/peptides can be passed over different forms of βTrCP and a reference surface simultaneously. If binding to βTrCP is occurring, responses should be the same (accounting for differences in density of surface etc) on each surface.
(§2) Small molecule/peptide samples to be assayed for binding to βTrCP surfaces, were provided as 10 mM stocks in 100% DMSO. All samples were tested in running buffer composed of 10 mM HEPES pH 7.4, 150 mM NaCl, 50 μM EDTA, 0.005% p20, and 1% DMSO. Serial dilutions were made using running buffer. […] KD values calculated from binding curves from both surfaces (with or without the GST moiety) were averaged to produce apparent KD's for each sample tested.
Background: SPR reads the build-up and loss of mass on a sensor chip optically.
Molecule Tos-[dD]EG[Phe(3-F)]W[E(Me)]-NH2 (also called UBP032) [Ts-dEGF(3F)WE(Me)-NH2] registered a Kd of 108 nM.

A further assay concerns the target T2, βTrCP (tag cleaved and complexed with Skp1) (UniProt Q9Y297 175-605; P63208 1-163).
T2 construct: Protein of the fluorescence polarisation assay, 0.035 µM; also called Beta Transducin repeat-containing protein; βTrCP/Skp1
The assay can be described thus: FP competition, 10 nM fluorescein-IκB peptide on βTrCP/Skp1. The protocol: (§3) Binding of the compounds to βTrCP was assessed using a fluorescence polarisation (FP) binding assay. The FP assay is an in vitro binding assay using a fluorescein-tagged IkB peptide at 10 nM to mimic substrate binding to βTrCP, and was performed as described above.
Four sequences were selected for re-synthesis and testing in the FP assay, which was performed as described above along with 4 negative controls.
The molecule Phth-EGFFE-NH2 [Phth-EGFFE-NH2] had an IC50 of 10900 nM.
B1 displayed an IC50 of 3180 nM. This IC50 lies about 3.4-fold lower than the previous one.

The target of another assay is T1, HisβTrCP/Skp1 and HisβTrCP/GSTSkp1 …. The assay can be described thus: SPR (Biacore T200), single cycle run up to 1e-6 M, steady-state fit of the run shown; Rmax 4.264 RU, Chi² 0.00601 RU² [B].
Description: as §1, §2
As to B2, the Kd was 80.8 nM. In other words, the double-digit nanomolar range.

In a further assay the target is T3, βTrCP (tag cleaved and complexed with Skp1) (UniProt Q9Y297 175-605; P63208 1-163).
T3 construct: Protein of the FP assay (0.035 µM); also called Beta Transducin repeat-containing protein; βTrCP/Skp1
The assay can be described thus: FP competition vs fluorescein-IκB peptide.
Turning to B2, the IC50 stood at 10 nM.
The same measure, in the same setting: the same measure for B3: 17 nM; for Tos-[dD]EG[Phe(3-F)]W[E(Me)]-NH2 (also called UBP032) [Ts-dEGF(3F)WE(Me)-NH2]: 22 nM; for B4: 18 nM.
Turning to Tos-[dD]EG[Phe(3-Cl)]W[E(Me)]-NH2 (also called UBP033) [Ts-dEGF(3Cl)WE(Me)-NH2], the IC50 amounted to 17 nM. This IC50 and that of the molecule before are within 1.5-fold of each other.

The target in another assay is T2, βTrCP (tag cleaved and complexed with …). The assay can be described thus: FP competition, 10 nM fluorescein-IκB peptide on βTrCP/Skp1. This is another data set of the same source. The protocol: as §3
As for DEGFFE-NH2 [DEGFFE-NH2], the IC50 worked out at 43600 nM.

For another assay, the target named is T3, βTrCP (tag cleaved and complexed with …). Kind of assay: FP competition vs fluorescein-IκB peptide. This is another data set of the same source.
In the case of B2, the IC50 was found to be 10 nM.
The same measure, in the same setting: the result for B3 reads 17 nM.
The same measure, in the same setting: the result for Tos-[dD]EG[Phe(3-F)]W[E(Me)]-NH2 (also called UBP032) [Ts-dEGF(3F)WE(Me)-NH2] reads 22 nM; that for B4, 18 nM; that for Tos-[dD]EG[Phe(3-Cl)]W[E(Me)]-NH2 (also called UBP033) [Ts-dEGF(3Cl)WE(Me)-NH2], 17 nM.

The next assay deals with Skp2 (UniProt Q13309 1-424, limits assumed). The assay can be described thus: cell-based or functional assay.
Sequence of Skp2 (Q13309 whole entry): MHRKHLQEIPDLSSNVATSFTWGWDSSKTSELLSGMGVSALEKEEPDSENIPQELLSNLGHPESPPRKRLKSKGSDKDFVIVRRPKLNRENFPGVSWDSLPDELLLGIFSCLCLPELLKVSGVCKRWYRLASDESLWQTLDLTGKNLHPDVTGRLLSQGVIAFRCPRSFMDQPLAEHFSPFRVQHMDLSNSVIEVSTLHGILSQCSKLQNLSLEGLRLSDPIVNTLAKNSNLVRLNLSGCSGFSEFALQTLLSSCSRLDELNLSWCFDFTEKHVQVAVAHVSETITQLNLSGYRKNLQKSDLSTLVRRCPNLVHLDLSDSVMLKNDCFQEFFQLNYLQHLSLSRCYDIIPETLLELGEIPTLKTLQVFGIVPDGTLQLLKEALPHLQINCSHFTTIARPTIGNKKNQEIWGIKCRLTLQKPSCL
Consider B2, for which the “% Inhibition Skp2 @ 10 µM” value turned out to be 0% and the “% Inhibition Skp2 @ (100 µM)” value turned out to be 0%.
For the molecule B3, the “% Inhibition Skp2 @ 10 µM” value was 7% and the “% Inhibition Skp2 @ (100 µM)” value turned out to be 12%.
Tos-[dD]EG[Phe(3-F)]W[E(Me)]-NH2 (also called UBP032) [Ts-dEGF(3F)WE(Me)-NH2]: the “% Inhibition Skp2 @ 10 µM” value is 0% and the “% Inhibition Skp2 @ (100 µM)” value turned out to be 0%.
Turning to B4, the “% Inhibition Skp2 @ 10 µM” value turned out to be 0% and the “% Inhibition Skp2 @ (100 µM)” value is 7%.
On the same counts, the results for Tos-[dD]EG[Phe(3-Cl)]W[E(Me)]-NH2 (also called UBP033) [Ts-dEGF(3Cl)WE(Me)-NH2] are 0% and 10%.

A further assay deals with Fbw7 (UniProt Q969H0 263-707, limits assumed). Kind of assay: cell-based or functional assay.
Sequence of Fbw7 (Q969H0 263-707 limits assumed): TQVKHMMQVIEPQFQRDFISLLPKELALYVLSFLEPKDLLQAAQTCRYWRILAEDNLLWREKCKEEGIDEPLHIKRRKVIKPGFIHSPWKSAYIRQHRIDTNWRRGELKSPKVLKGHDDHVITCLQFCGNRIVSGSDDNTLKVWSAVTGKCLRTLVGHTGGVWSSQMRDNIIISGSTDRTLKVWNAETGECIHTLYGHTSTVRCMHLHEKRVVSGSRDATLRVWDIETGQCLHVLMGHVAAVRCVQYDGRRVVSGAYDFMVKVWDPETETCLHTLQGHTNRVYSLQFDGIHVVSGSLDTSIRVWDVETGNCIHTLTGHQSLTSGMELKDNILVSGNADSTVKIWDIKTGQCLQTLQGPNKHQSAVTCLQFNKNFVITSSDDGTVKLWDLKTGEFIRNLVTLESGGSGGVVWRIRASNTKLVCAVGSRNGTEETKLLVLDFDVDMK
Consider B2, for which the “% Inhibition Fbw7 @ 10 µM” value was found to be 8% and the “% Inhibition Fbw7 @ (100 µM)” value amounted to 6%.
On the same counts, the results for B3 are 0% and 18%.
In the same order, the values of Tos-[dD]EG[Phe(3-F)]W[E(Me)]-NH2 (also called UBP032) [Ts-dEGF(3F)WE(Me)-NH2] are 4% and 10%.
In the same order, the values of B4 are 0% and 8%.
For Tos-[dD]EG[Phe(3-Cl)]W[E(Me)]-NH2 (also called UBP033) [Ts-dEGF(3Cl)WE(Me)-NH2], the “% Inhibition Fbw7 @ 10 µM” value came to 7% and the “% Inhibition Fbw7 @ (100 µM)” value was 11%.

The target in another assay is T1, HisβTrCP/Skp1 and HisβTrCP/GSTSkp1 …. Kind of assay: SPR (Biacore T200), single cycle run up to 1e-6 M, steady-state fit of the run shown; Rmax 3.459 RU, Chi² 0.00452 RU² [C].
Description: as §1, §2
As to B3, the Kd is 49.8 nM.

The next assay shares this target. Kind of assay: SPR (Biacore T200), single cycle run up to 1e-6 M, steady-state fit of the run shown; Rmax 1.318 RU, Chi² 0.00773 RU² [D].
Description: as §1, §2
B4 gave a Kd of 40 nM.

The target is the same in a further assay. Kind of assay: SPR (Biacore T200), single cycle run up to 1e-6 M, steady-state fit of the run shown; Rmax 2.093 RU, Chi² 0.0110 RU² [A].
Description: as §1, §2
Regarding Tos-[dD]EG[Phe(3-Cl)]W[E(Me)]-NH2 (also called UBP033) [Ts-dEGF(3Cl)WE(Me)-NH2], the affinity, expressed as Kd, was 21.6 nM.

Another assay has as its target T3, βTrCP (tag cleaved and complexed with …). The assay can be described thus: FP competition vs fluorescein-IκB peptide. This is another data set of the same source.
Turning to B5, the IC50 was determined as 78000 nM.
With B6, the IC50 was 46000 nM.
Turning to Suc-[βE]GYFE-NH2 (not fully specified; printed as Suc-βE-GYFE-NH2) [Suc-βE-GYFE-NH2], the IC50 came to 30000 nM.
Same read-out and setting: the same measure for B7: 38000 nM and 39000 nM.

A further assay deals with T1, HisβTrCP/Skp1 and HisβTrCP/GSTSkp1 …. The assay can be described thus: SPR, Biacore T200, βTrCP/Skp1 immobilised.
Description: as §1
Small molecule/peptide samples to be assayed for binding to βTrCP surfaces, were provided as 10 mM stocks in 100% DMSO. All samples were tested in running buffer composed of 10 mM HEPES pH 7.4, 150 mM NaCl, 50 μM EDTA, 0.005% p20, and 1% DMSO. Serial dilutions were made using running buffer. Samples were tested over varying concentrations up to a maximum of 100 μM. Two methods of measuring the SPR response were employed: single cycle kinetics which measures the response across different concentrations of sample within a single cycle (no regeneration of surface) and a method that measures the response at a given concentration in each cycle and includes a regeneration wash after each sample injection. The regeneration solution used was the same as running buffer, but included 500 mM NaCl. Data was fitted using Biacore T200 evaluation software. KD values calculated from binding curves from both surfaces (with or without the GST moiety) were averaged to produce apparent KD's for each sample tested.
As to B2, binding was characterised by a dissociation constant (Kd) of 154 nM.
In turn, B3 yielded a Kd of 48 nM.
The same measure, in the same setting: the result for Tos-[dD]EG[Phe(3-F)]W[E(Me)]-NH2 (also called UBP032) [Ts-dEGF(3F)WE(Me)-NH2] reads 170 nM.
Molecule B4 registered a Kd of 19 nM.
The same measure, in the same setting: the same measure for Tos-[dD]EG[Phe(3-Cl)]W[E(Me)]-NH2 (also called UBP033) [Ts-dEGF(3Cl)WE(Me)-NH2]: 47 nM.
